The Kd is the concentration at which binding is half-saturated. Higher therefore signals weaker binding. A word on the koff: it is a measure of how fast the partners let go of each other. A low value points to a long-lived complex.

What all share (test): SPR
On the technique in general: SPR reads the build-up and loss of mass on a sensor chip optically.

For experiment [1], the target named is T1, pneumolysin (Streptococcus pneumoniae, UniProt P0C2J9 1-471).
T1 chain: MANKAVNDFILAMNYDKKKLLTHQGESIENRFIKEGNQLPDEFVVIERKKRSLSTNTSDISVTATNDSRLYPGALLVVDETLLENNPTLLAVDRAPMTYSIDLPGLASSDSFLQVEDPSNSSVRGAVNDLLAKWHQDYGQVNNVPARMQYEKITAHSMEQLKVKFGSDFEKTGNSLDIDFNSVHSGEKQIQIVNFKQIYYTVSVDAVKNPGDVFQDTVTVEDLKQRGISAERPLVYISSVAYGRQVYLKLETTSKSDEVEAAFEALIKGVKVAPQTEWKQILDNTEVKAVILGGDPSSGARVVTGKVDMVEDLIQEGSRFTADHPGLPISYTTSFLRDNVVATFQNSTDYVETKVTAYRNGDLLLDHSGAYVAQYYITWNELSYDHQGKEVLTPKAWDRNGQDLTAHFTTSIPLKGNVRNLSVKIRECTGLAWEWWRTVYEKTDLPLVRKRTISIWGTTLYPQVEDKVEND

The target in experiment [2] is T1, pneumolysin.
Experiment [3] addresses T1, pneumolysin.

B1: plasma kallikrein (zymogen) (natural protein)
chain: not shown
As to B1, the Ka with pneumolysin [1] came to 3.04e+06 M⁻¹. The molecule further returned a dissociation constant Kd in the experiment with pneumolysin [2] of 328 nM. The koff in the experiment with pneumolysin [3] came to 0.00942 s⁻¹.

B2: factor XII (zymogen) (natural protein)
chain: IPPWEAPKEHKYKAEEHTVVLTVTGEPCHFPFQYHRQLYHKCTHKGRPGPQPWCATTPNFDQDQRWGYCLEPKKVKDHCSKHSPCQKGGTCVNMPSGPHCLCPQHLTGNHCQKEKCFEPQLLRFFHKNEIWYRTEQAAVARCQCKGPDAHCQRLASQACRTNPCLHGGRCLEVEGHRLCHCPVGYTGAFCDVDTKASCYDGRGLSYRGLARTTLSGAPCQPWASEATYRNVTAEQARNWGLGGHAFCRNPDNDIRPWCFVLNRDRLSWEYCDLAQCQTPTQAAPPTPVSPRLHVPLMPAQPAPPKPQPTTRTPPQSQTPGALPAKREQPPSLTRNGPLSCGQRLRKSLSSMTRVVGGLVALRGAHPYIAALYWGHSFCAGSLIAPCWVLTAAHCLQDRPAPEDLTVVLGQERRNHSCEPCQTLAVRSYRLHEAFSPVSYQHDLALLRLQEDADGSCALLSPYVQPVCLPSGAARPSETTLCQVAGWGHQFEGAEEYASFLQEAQVPFLSLERCSAPDVHGSSILPGMLCAGFLEGGTDACQGDSGGPLVCEDQAAERRLTLQGIISWGSGCGDRNKPGVYTDVAYYLAWIREHTVS
As for B2, the Ka with pneumolysin [1] turned out to be 4.41e+07 M⁻¹. The affinity with pneumolysin [2], expressed as Kd, was 24.9 nM. Moreover, the koff with pneumolysin [3] turned out to be 0.00198 s⁻¹.

B3: high-molecular-weight kininogen (natural protein)
chain: QESQSEEIDCNDKDLFKAVDAALKKYNSQNQSNNQFVLYRITEATKTVGSDTFYSFKYEIKEGDCPVQSGKTWQDCEYKDAAKAATGECTATVGKRSSTKFSVATQTCQITPAEGPVVTAQYDCLGCVHPISTQSPDLEPILRHGIQYFNNNTQHSSLFMLNEVKRAQRQVVAGLNFRITYSIVQTNCSKENFLFLTPDCKSLWNGDTGECTDNAYIDIQLRIASFSQNCDIYPGKDFVQPPTKICVGCPRDIPTNSPELEETLTHTITKLNAENNATFYFKIDNVKKARVQVVAGKKYFIDFVARETTCSKESNEELTESCETKKLGQSLDCNAEVYVVPWEKKIYPTVNCQPLGMISLMKRPPGFSPFRSSRIGEIKEETTVSPPHTSMAPAQDEERDSGKEQGHTRRHDWGHEKQRKHNLGHGHKHERDQGHGHQRGHGLGHGHEQQHGLGHGHKFKLDDDLEHQGGHVLDHGHKHKHGHGHGKHKNKGKKNGKHNGWKTEHLASSSEDSTTPSAQTQEKTEGPTPIPSLAKPGVTVTFSDFQDSDLIATMMPPISPAPIQSDDDWIPDIQIDPNGLSFNPISDFPDTTSPKCPGRPWKSVSEINPTTQMKESYYFDLTDGLS
Molecule B3 showed a Ka in the experiment with pneumolysin [1] of 573000 M⁻¹. For the same molecule, binding with pneumolysin [2] was characterised by a dissociation constant (Kd) of 12600 nM. In addition, in the experiment with pneumolysin [3], the koff was found to be 0.00208 s⁻¹.

(Values after PMC10643893 (2022).)
